Laboratory results reported in patent CN117999283A (INST BASIC SCIENCE; KOREA ADVANCED INST SCI & TECH, dated 2024).

B1: 人Tie2 ECD (人Tie2的第23-735位残基) (receptor, human, UniProt Q02763 23-735, looked up)
chain: AMDLILINSLPLVSDAETSLTCIASGWRPHEPITIGRDFEALMNQHQDPLEVTQDVTREWAKKVVWKREKASKINGAYFCEGRVRGEAIRIRTMKMRQQASFLPATLTMTVDKGDNVNISFKKVLIKEEDAVIYKNGSFIHSVPRHEVPDILEVHLPHAQPQDAGVYSARYIGGNLFTSAFTRLIVRRCEAQKWGPECNHLCTACMNNGVCHEDTGECICPPGFMGRTCEKACELHTFGRTCKERCSGQEGCKSYVFCLPDPYGCSCATGWKGLQCNEACHPGFYGPDCKLRCSCNNGEMCDRFQGCLCSPGWQGLQCEREGIQRMTPKIVDLPDHIEVNSGKFNPICKASGWPLPTNEEMTLVKPDGTVLHPKDFNHTDHFSVAIFTIHRILPPDSGVWVCSVNTVAGMVEKPFNISVKVLPKPLNAPNVIDTGHNFAVINISSEPYFGDGPIKSKKLLYKPVNHYEAWQHIQVTNEIVTLNYLEPRTEYELCVQLVRRGEGGEGHPGPVRRFTTASIGLPPPRGLNLLPKSQTTLNLTWQPIFPSSEDDFYVEVERRSVQKSDQQNIKVPGNLTSVLLNNLHPREQYVVRARVNTKAQGEWSEDLTAWTLSDILPPQPENIKISNITHSSAVISWTILDGYSISSITIRYKVQGKNEDQHVDVKIKNATITQYQLKGLEPETAYQVDIFAENNIGSSNPAFSHELVTLPES
notes: range 23-735; The construct is defined on GenBank AAH35514.2; Tags are not described; also called hTie2 ECD

Legend:
[1] = target: the molecule itself; test: SEC-MALS; self-association in solution
[2] = target: B1; test: SPR (Biacore T200): hTie2 ECD amine-coupled on CM5, IgG as analyte at 0-64 nM, 1:1 model

Kd [2] [nM] | koff [2] [s⁻¹] | kon [2] [M⁻¹ s⁻¹] | Binder | binding result [1]
– | – | – | B1 | no binding (tested: 1mg/ml)
4.2 | 0.0006 | 140000 | hTAAB (hTie2活化小鼠单克隆抗体, 小鼠IgG1) (antibody, V domains shown, Mouse IgG1 from a hybridoma; also called 小鼠hTAAB; 亲本hTAAB) VH: QVQLQQPGAELVRPGASVKLSCKASGYSFTSYWMNWVKQRPGQGLEWIGMIHPSDSETRLNQKFMDKATLTVDKSSSTAYMQLSSPTSEDSAVYYCARGLYGNSWGQGTLVTVSA VL: DIQMTQSPSSLSASLGERVSLTCRASQDIGISLNWLQQEPDGTIKRLIYATSSLDSGVPKRFSGSRSGSDYSLTISSLESEDFVDYYCLQYASSPYTFGGGTKLEIK | –
